The text below walks through data of the supplement of paper PMC10567573.

A short description of this series: protein stability index of a GFP-peptide fusion (GPS, HEK-293T) (PSI 1-6); higher = more stable. The following applies: c terminus: a fixed tail appended.

± gives the standard deviation.
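Also: 24-mer peptide tiles fused after GFP, lentivirally expressed, FACS-sorted into six equal bins by GFP/DsRed ratio, decoded by Illumina sequencing, PSI is the read-weighted mean bin number.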

As for TWKSGKQTMLSHYRPFYVNKGNGI [TRIM29], the protein stability index runs as follows: (treatment: DMSO) 2.36 ± 0.41; (treatment: MLN4924 1 uM, 8 h) 2.4 ± 0.2.

Sequence TYLCERCQPRNLDKERAVLLQRRK [KMT2E] yielded a protein stability index (treatment: DMSO) of 2.57 ± 0.48 and a protein stability index (treatment: MLN4924 1 uM, 8 h) of 3.32 ± 0.54.

For the sequence VACFLTRGDLWISWEEGMKVFEEL [CRY1], the protein stability index was 2.67 ± 0.71 (treatment: DMSO) and 2.33 ± 0.39 (treatment: MLN4924 1 uM, 8 h).

In turn, VAGEGVRRKGEMGLSAEDGVWAVI [TRIM15] yielded a protein stability index (treatment: DMSO) of 2.51 ± 0.22 and a protein stability index (treatment: MLN4924 1 uM, 8 h) of 2.55 ± 0.2.

Regarding VARILIDLCSDVNVCSLLAQTPLH [RIPK4], the protein stability index by setting is: (treatment: DMSO) 2.65 ± 0.26; (treatment: MLN4924 1 uM, 8 h) 2.57 ± 0.4.

As to VASGLQFDVETRHVFIGDHSGQVT [WDFY2], the protein stability index was determined as 2.91 ± 0.54 (treatment: DMSO) and 3.12 ± 0.46 (treatment: MLN4924 1 uM, 8 h).

As for VAVALRKPDGSRHQDVPSQDDSKP [AASDHPPT], the protein stability index (treatment: DMSO) was 5.15 ± 0.26 and the protein stability index (treatment: MLN4924 1 uM, 8 h) worked out at 5 ± 0.17.

As to VCALSALPAGPLPAPLLVLCPSRA [PLEKHN1], the protein stability index was 2.12 ± 0.2 (treatment: DMSO) and 2.18 ± 0.16 (treatment: MLN4924 1 uM, 8 h).

For VCVRAHESVVKSEDFSLPAYMDRR [COX4I1], the protein stability index by setting is: (treatment: DMSO) 3.1 ± 0.43; (treatment: MLN4924 1 uM, 8 h) 3.14 ± 0.24.

As for VDKDQPSILNSCEDPVPGMLFFLP [FBXO34], the protein stability index was 3.32 ± 0.39 (treatment: DMSO) and 3.02 ± 0.36 (treatment: MLN4924 1 uM, 8 h).

Take VDLNRNFPDLNTYIYYNEKYGGPN [CPN1]: the protein stability index runs as follows: (treatment: DMSO) 2.64 ± 0.18; (treatment: MLN4924 1 uM, 8 h) 2.53 ± 0.52.

For the sequence VEFDVLPAFDALGQLTGGYKPNPQ [OAS1], the protein stability index is 2.85 ± 0.27 (treatment: DMSO) and 2.9 ± 0.21 (treatment: MLN4924 1 uM, 8 h).

In the case of VEGKGNGIKTVIVNMVDVAKALNR [EIF5], the protein stability index was 2.14 ± 0.21 (treatment: DMSO) and 2.22 ± 0.31 (treatment: MLN4924 1 uM, 8 h).

For VETELQRRNEETPEEGQQPWLCGE [GDAP1], the protein stability index runs as follows: (treatment: DMSO) 5.38 ± 0.1; (treatment: MLN4924 1 uM, 8 h) 5.5 ± 0.15.

Regarding VEVLVDLFLKEGACDELFSYLIEK [PRAME], the protein stability index is, setting by setting: (treatment: DMSO) 2.55 ± 0.66; (treatment: MLN4924 1 uM, 8 h) 3.03 ± 0.58.

As for VFAHCKEAPSTASSTPDSTEGGND [RTN2], the protein stability index by setting is: (treatment: DMSO) 5.42 ± 0.33; (treatment: MLN4924 1 uM, 8 h) 5.37 ± 0.37.

Consider VFCREGPTHQAHTVGFLDEAIQPY [TRIM15], for which the protein stability index is, setting by setting: (treatment: DMSO) 2.85 ± 0.31; (treatment: MLN4924 1 uM, 8 h) 2.83 ± 0.24.

For the sequence VFLVSCALPDSVLRRFVVRTMCAV [AUP1], the protein stability index (treatment: DMSO) worked out at 2.71 ± 0.49 and the protein stability index (treatment: MLN4924 1 uM, 8 h) amounted to 2.67 ± 0.068.

Consider VGGQDTGATWRTSGLLEELNAEAG [C18orf25], for which the protein stability index was found to be 4.57 ± 0.2 (treatment: DMSO) and 4.59 ± 0.34 (treatment: MLN4924 1 uM, 8 h).

Turning to VGKSLTILGRTFFIYDCDPFTRRY [EFHC1], the protein stability index is, setting by setting: (treatment: DMSO) 2.47 ± 0.54; (treatment: MLN4924 1 uM, 8 h) 2.7 ± 0.54.

VGLAAVNSMPVDNRNHNEGMVTRC [CHGB]: the protein stability index reads like this: (treatment: DMSO) 4.27 ± 0.23; (treatment: MLN4924 1 uM, 8 h) 4.3 ± 0.37.

Turning to VGYTRGLHVWQITWAMRQRGTHAV [SPSB1], the protein stability index (treatment: DMSO) came to 2.37 ± 0.52 and the protein stability index (treatment: MLN4924 1 uM, 8 h) was 2.55 ± 0.52.

VIKGVLFRIFIIWAISSWFRRGPA [CLPTM1]: the protein stability index came to 2.75 ± 0.58 (treatment: DMSO) and 2.87 ± 0.68 (treatment: MLN4924 1 uM, 8 h).

With VITALKCHKYDRNIQVTGSAALFY [ZER1], the protein stability index (treatment: DMSO) was determined as 2.84 ± 0.18 and the protein stability index (treatment: MLN4924 1 uM, 8 h) turned out to be 2.85 ± 0.47.

As for VKFCLLGALLAPIRVLLAFIVLFL [LPCAT4], the protein stability index runs as follows: (treatment: DMSO) 2.15 ± 0.29; (treatment: MLN4924 1 uM, 8 h) 1.86 ± 0.2.

As to VKLLVDLELSYGFENGQKAAVVHH [TOR1AIP2], the protein stability index was 2.22 ± 0.26 (treatment: DMSO) and 2.3 ± 0.12 (treatment: MLN4924 1 uM, 8 h).

VKTKKNAPSATIHQGEEEGPLDIW [FBXO34]: the protein stability index reads like this: (treatment: DMSO) 4.21 ± 0.2; (treatment: MLN4924 1 uM, 8 h) 4.4 ± 0.25.

As to VLEIEQSMNRVKNISDADVHNAMD [FEM1B], the protein stability index (treatment: DMSO) stood at 4.13 ± 0.14 and the protein stability index (treatment: MLN4924 1 uM, 8 h) was determined as 4.32 ± 0.23.

For the sequence VLKLLLLLLLFGVAGGLVACRVTE [LRRC59], the protein stability index runs as follows: (treatment: DMSO) 2.77 ± 0.73; (treatment: MLN4924 1 uM, 8 h) 2.68 ± 0.81.

As to VLMDTQGAFDSQSTVKDCATIFAL [ATL3], the protein stability index reads like this: (treatment: DMSO) 2.48 ± 0.35; (treatment: MLN4924 1 uM, 8 h) 2.55 ± 0.21.

For VLTDSNHVPLQRLSLLVHNVSVMH [FBXO33], the protein stability index was determined as 1.96 ± 0.3 (treatment: DMSO) and 2.22 ± 0.28 (treatment: MLN4924 1 uM, 8 h).

In the case of VMAWVKYSIQERRPQLPQVLQHVR [KLHL20], the protein stability index was determined as 2.41 ± 0.37 (treatment: DMSO) and 2.04 ± 0.34 (treatment: MLN4924 1 uM, 8 h).

As to VNGSWYIQDLCEMLGKYGSSLEFT [CASP6], the protein stability index reads like this: (treatment: DMSO) 2.95 ± 0.65; (treatment: MLN4924 1 uM, 8 h) 2.67 ± 0.55.

Turning to VNKLKWNLAAMTPHDFIEHFLSKM [CCND1], the protein stability index was 2.25 ± 0.35 (treatment: DMSO) and 2.51 ± 0.25 (treatment: MLN4924 1 uM, 8 h).

As for VPQIFKYGETCFPKGRFERKRNPS [ZNF24], the protein stability index stood at 3.8 ± 0.76 (treatment: DMSO) and 3.93 ± 1.1 (treatment: MLN4924 1 uM, 8 h).

VPSEEPQESDQTEEHESGIEQFSE [IQUB] returned a protein stability index (treatment: DMSO) of 5.69 ± 0.13 and a protein stability index (treatment: MLN4924 1 uM, 8 h) of 5.57 ± 0.38.
